This is an account of results in patent US20260275311, “CRISPR NUCLEASE POLYPEPTIDES AND GENE EDITING SYSTEMS COMPRISING SUCH” (ARBOR BIOTECHNOLOGIES, INC., published 2026).

Conditions in all cases: tags: N-terminal SV40 NLS, C-terminal XTEN linker + nucleoplasmin NLS
One data set addresses T1, Nuclease A.
T1 chain: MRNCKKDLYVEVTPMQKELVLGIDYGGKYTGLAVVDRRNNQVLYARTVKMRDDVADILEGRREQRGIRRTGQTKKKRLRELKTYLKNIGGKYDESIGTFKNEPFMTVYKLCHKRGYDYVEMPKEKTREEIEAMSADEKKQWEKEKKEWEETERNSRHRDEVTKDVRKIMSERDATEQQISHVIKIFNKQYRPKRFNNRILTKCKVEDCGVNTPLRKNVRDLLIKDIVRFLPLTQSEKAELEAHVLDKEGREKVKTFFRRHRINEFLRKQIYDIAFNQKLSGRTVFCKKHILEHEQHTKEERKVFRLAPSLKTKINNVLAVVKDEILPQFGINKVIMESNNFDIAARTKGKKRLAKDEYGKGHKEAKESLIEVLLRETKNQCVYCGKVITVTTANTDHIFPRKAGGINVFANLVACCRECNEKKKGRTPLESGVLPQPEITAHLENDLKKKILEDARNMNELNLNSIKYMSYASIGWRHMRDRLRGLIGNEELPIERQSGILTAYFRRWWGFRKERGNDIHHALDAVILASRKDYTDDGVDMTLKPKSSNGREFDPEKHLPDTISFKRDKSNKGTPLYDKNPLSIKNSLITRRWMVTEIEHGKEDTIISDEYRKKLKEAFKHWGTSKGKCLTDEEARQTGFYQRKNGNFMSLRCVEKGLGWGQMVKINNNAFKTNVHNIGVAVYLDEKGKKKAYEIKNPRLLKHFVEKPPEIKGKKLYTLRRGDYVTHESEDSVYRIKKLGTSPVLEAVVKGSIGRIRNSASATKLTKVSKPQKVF
Nature of the data set: cell_activity; PAM NGG (AGG); HEK293T. As to the method:
(§1) Approximately 16 hours prior to transfection, 25,000 HEK293T cells in DMEM/10% FBS+Pen/Strep (D10 media) were plated into each well of a 96-well plate. On the day of transfection, the cells were 50-90% confluent. For each well to be transfected, a mixture of Lipofectamine 2000™ (ThermoFisher Scientific) and Opti-MEM™ (ThermoFisher Scientific) was prepared and incubated at room temperature for 5 minutes (Solution 1). After incubation, the Lipofectamine 2000™: Opti-MEM™ mixture was added to a separate mixture containing the CRISPR nuclease plasmid (NLS-tagged), RNA guide plasmid, and Opti-MEM™ (Solution 2). In the case of negative controls, the CRISPR nuclease plasmid was excluded. Solutions 1 and 2 were mixed by pipetting up and down, then incubated at room temperature for 25 minutes. Following incubation, the Solution 1 and 2 mixture was added dropwise to each well of a 96-well plate containing the cells. Approximately 72 hours post transfection, cells were trypsinized by adding TrypLE™ (ThermoFisher Scientific) to the center of each well and incubating at 37° C. for approximately 5 minutes. D10 media was then added to each well and mixed to resuspend cells. The resuspended cells were centrifuged for 10 minutes to obtain a pellet, and the supernatant was discarded. The cell pellet was then resuspended in QuickExtract™ buffer (Lucigen®), and cells were incubated at 65° C. for 15 minutes, 68° C. for 15 minutes, and 98° C. for 10 minutes.
(§2) Each Nuclease A variant and RNA guide (see Table 5) was cloned as described in Example 2. HEK293T cells were further transfected, followed by NGS analysis, as described in Example 2. For each target, indel ratios, referring to the percentage of NGS reads comprising indels, were calculated for Nuclease A (SEQ ID NO: 1) and for each variant of Nuclease A. The indel ratios shown in Table 6 were calculated as the average of two bioreplicates, each of which contained two technical replicates.

For data set [1], the target named is T2, Nuclease A I67R/D568R/E706R.
T2 chain: T1 chain with I67R, D568R, E706R
Kind of data set: cell_activity; PAM NGG (AGG); HEK293T. As to the method:
as §1, §2

A further data set has as its target T3, Nuclease A I67R (I67R).
T3 chain: T1 chain with I67R
Kind of data set: cell_activity; PAM NGG; HEK293T.

Changes are numbered by the printed parent chain.

B1: Nuclease A AAVS1-T3 guide ; AAVS1-T3 target (ssRNA ; dsDNA)
RNA: UUGUGAGAAUGGUGCGUCCUGUUACAGUUAAGGCUCUUUGGAAACAAAGAAGCCUUAAUUGUAAAACGCCUAUAUGGUAAAGUGAUGUACGUUUGGGUAUAUAUCGCCAGCCUGAACCUCUACGCCAGAAAUGGCAGCUUUAUCAUGGGUUAGGACGAUAUUUAAAAAACUUUCUGCGGCUUGCUUACUUUAGUAAGCUUUGUGGCUGAGGCAGAAUUCCUU
DNA 1: TTGTGAGAATGGTGCGTCCT
DNA 2: AGGACGCACCATTCTCACAA
On to B1, for which the activity amounted to 0.044 indel ratio in the data set with Nuclease A and 0.37 indel ratio in data set [1]. Besides, the binding signal in the data set with Nuclease A I67R came out at 7.07 fold vs Nuclease A.

B2: Nuclease A VEGFA-T6 guide ; VEGFA-T6 target (ssRNA ; dsDNA)
RNA: UUUGCCCAUACUGGGGACCAGUUACAGUUAAGGCUCUUUGGAAACAAAGAAGCCUUAAUUGUAAAACGCCUAUAUGGUAAAGUGAUGUACGUUUGGGUAUAUAUCGCCAGCCUGAACCUCUACGCCAGAAAUGGCAGCUUUAUCAUGGGUUAGGACGAUAUUUAAAAAACUUUCUGCGGCUUGCUUACUUUAGUAAGCUUUGUGGCUGAGGCAGAAUUCCUU
DNA 1: TTTGCCCATACTGGGGACCA
DNA 2: TGGTCCCCAGTATGGGCAAA
B2: the activity in the data set with Nuclease A is 0.049 indel ratio; in data set [1] it was 0.325 indel ratio. Besides, in the data set with Nuclease A I67R, the binding signal was determined as 4.43 fold vs Nuclease A.
